In this assay the target is T1, complement factor C1q (UniProt P02745 23-245; P02746 28-253; P02747 29-245).
T1 construct: also called Clq; recombinant complement factor C1q
Briefly: flow cytometry: BT-474 cells with 10 µg/mL antibody, then 10 µg/mL C1q, detected with PE-labeled anti-C1q antibody. How it is done: About 3×10⁵ BT-474 cells were incubated with 10 μg/mL of indicated antibody on ice in RPMI 1640 supplemented with 10% FCS. After 30 min. incubation on ice 10 μg/mL C1q (Sigma Aldrich, Cat. No. C1740) was added. The incubation was continued thereafter for an additionally 20 min. on ice. After washing the cells were resuspended in 200 μL medium and counterstained with a PE-labeled anti-C1q antibody (Cedarlane, Cat. No. CL7611PE-SP). After an incubation time of 30 min. on ice cells were washed twice and analyzed on a FACS Canto

T1 sequence (P02745 23-245 limits assumed, chain 1 of 3): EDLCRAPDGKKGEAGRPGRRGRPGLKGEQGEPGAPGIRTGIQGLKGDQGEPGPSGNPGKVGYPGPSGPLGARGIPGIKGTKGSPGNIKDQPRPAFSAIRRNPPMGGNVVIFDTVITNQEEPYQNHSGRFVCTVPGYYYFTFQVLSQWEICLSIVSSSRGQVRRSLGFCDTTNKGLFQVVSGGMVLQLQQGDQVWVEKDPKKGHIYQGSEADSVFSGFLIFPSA
T1 sequence (P02746 28-253 limits assumed, chain 2 of 3): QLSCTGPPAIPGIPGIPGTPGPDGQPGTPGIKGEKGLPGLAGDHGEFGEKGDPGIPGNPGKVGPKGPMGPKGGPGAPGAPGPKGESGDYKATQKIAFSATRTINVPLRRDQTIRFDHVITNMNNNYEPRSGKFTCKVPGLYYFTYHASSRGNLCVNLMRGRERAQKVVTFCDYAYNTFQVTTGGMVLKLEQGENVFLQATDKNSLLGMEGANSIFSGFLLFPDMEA
T1 sequence (P02747 29-245 limits assumed, chain 3 of 3): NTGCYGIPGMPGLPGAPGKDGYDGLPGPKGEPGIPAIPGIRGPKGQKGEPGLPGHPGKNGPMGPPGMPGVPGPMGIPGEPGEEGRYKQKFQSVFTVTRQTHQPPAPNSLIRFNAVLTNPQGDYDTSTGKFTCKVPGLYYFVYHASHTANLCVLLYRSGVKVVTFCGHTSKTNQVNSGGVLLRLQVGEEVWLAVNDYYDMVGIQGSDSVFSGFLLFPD

B1: bispecific anti-HER2 antibody, common light chain (bispecific antibody, human IgG1, kappa)
light: DIQMTQSPSSLSASVGDRVTITCKASQDVSTAVAWYQQKPGKAPKLLIYSASFRYTGVPSRFSGSRSGTDFTLTISSLQPEDFATYYCQQHYTTPPTFGQGTKVEIKRTVAAPSVFIFPPSDEQLKSGTASVVCLLNNFYPREAKVQWKVDNALQSGNSQESVTEQDSKDSTYSLSSTLTLSKADYEKHKVYACEVTHQGLSSPVTKSFNRGEC
heavy 1: not shown
heavy 2: not shown
notes: Knob-into-hole bispecific antibody with a common light chain
Turning to B1, the “PE-signal (geomean)” value came out at 1440 geomean PE-signal.

B2: bispecific anti-HER2 antibody, common light chain, glycoengineered (bispecific antibody, human IgG1, kappa)
light: B1 light
heavy 1: not shown
heavy 2: not shown
notes: The glycan change is not described
Regarding B2, the “PE-signal (geomean)” value came out at 1040 geomean PE-signal.

B3: bispecific anti-HER2 antibody, CrossMab format (bispecific antibody, human IgG1, kappa)
heavy 1: not shown
heavy 2: not shown
light 1: DIQLTQPPSVSVAPGQTARITCGASQDVSTAVAWYQQKPGQAPVLVVYSASFLYSGIPSRFSGSRSGTDFTLTISRVEAGDEADYYCQQHYTTPPTFGTGTKVTVLRTVAAPSVFIFPPSDEQLKSGTASVVCLLNNFYPREAKVQWKVDNALQSGNSQESVTEQDSKDSTYSLSSTLTLSKADYEKHKVYACEVTHQGLSSPVTKSFNRGEC
light 2: DIQMTQSPSSLSASVGDRVTITCKASQDVSIGVAWYQQKPGKAPKLLIYSASYRYTGVPSRFSGSGSGTDFTLTISSLQPEDFATYYCQQYYIYPYTFGQGTKVEIKSSASTKGPSVFPLAPSSKSTSGGTAALGCLVKDYFPEPVTVSWNSGALTSGVHTFPAVLQSSGLYSLSSVVTVPSSSLGTQTYICNVNHKPSNTKVDKKVEPKSC
notes: CrossMab format with four different chains
As to B3, the “PE-signal (geomean)” value worked out at 489 geomean PE-signal.

These data come from patent US20180017572A1 (Hoffmann-La Roche, published 2018).
